± gives the uncertainty stated by the source.

B1: Transcription factor SOX-4, residues 60 to 127; numbered along this chain, Q06945 (parent)
chain: KRPMNAFMVWSQIERRKIMEQSPDMHNAEISKRLGKRWKLLKDSDKIPFIREAERLRLKHMADYPDYK

Variants of B1 are the subject of the data set. As to the kind of experiment: abundance fitness (aPCA) (normalised: wild type 0, dead -1); higher = more abundant; growth selection in yeast, the domain comes from the species named. Conditions: Homo sapiens.
Regarding L40R, the abundance fitness is -0.08 ± 0.041.

In the case of L40V, the abundance fitness was -0.329 ± 0.046. On to L40H, for which the abundance fitness is -0.153 ± 0.14.

On to L40Y, for which the abundance fitness was -0.331 ± 0.08.

Turning to L40Q, the abundance fitness is 0.011 ± 0.071. Take D63A: the abundance fitness was -0.074 ± 0.051. Consider D63I, for which the abundance fitness was -0.181 ± 0.045. For D63C the value was -0.397 ± 0.063; for D63S, -0.153 ± 0.036; for D63G, -0.142 ± 0.044.

For D63E, the abundance fitness was determined as 0.044 ± 0.042. The value for A6V was -0.507 ± 0.054; that for A6Q was -0.617 ± 0.094.

For A6C, the abundance fitness was -0.692 ± 0.087. For A6H the value was -1.12 ± 0.36; for A6T, -0.797 ± 0.091. For A6S the value was -0.495 ± 0.05. The value for A6W was -0.896 ± 0.1; that for M4L was -0.105 ± 0.053; that for M4T was -0.077 ± 0.065.

Take M4I: the abundance fitness came to 0.047 ± 0.07. In the case of M4A, the abundance fitness is -0.227 ± 0.075. Consider M4C, for which the abundance fitness is -0.709 ± 0.22.

Regarding M4E, the abundance fitness is -0.202 ± 0.081. Turning to D45E, the abundance fitness was -0.074 ± 0.089. For D45F the value was -0.39 ± 0.48.

In the case of D45S, the abundance fitness is -0.431 ± 0.089. The value for D45K was -0.486 ± 0.33. The value for S31R was -0.137 ± 0.032; that for S31D was 0.154 ± 0.04; that for S31M was 0.072 ± 0.043. For S31C the value was -0.027 ± 0.049; for S31K, -0.039 ± 0.06; for S31N, 0.05 ± 0.044. Consider L58R, for which the abundance fitness stood at 0.007 ± 0.04. The value for L58Y was -0.286 ± 0.043.

As for L58H, the abundance fitness is -0.018 ± 0.062. For L58K the value was -0.07 ± 0.046.

On to L58D, for which the abundance fitness is -0.039 ± 0.047. In the case of L58I, the abundance fitness is -0.132 ± 0.047. For L58T the value was -0.087 ± 0.058; for R15N, -0.738 ± 0.096; for R15Y, -0.375 ± 0.066. For the variant R15F, the abundance fitness was -0.464 ± 0.045. Consider R15M, for which the abundance fitness is -0.177 ± 0.053. Regarding R15Q, the abundance fitness was -0.3 ± 0.069. On to I13M, for which the abundance fitness is -0.228 ± 0.069.

I13G: the abundance fitness is -0.222 ± 0.053. For I13Y the value was -0.456 ± 0.14.

On to I13R, for which the abundance fitness was -0.401 ± 0.062. For I13W, the abundance fitness is -0.531 ± 0.14. On to I13C, for which the abundance fitness is -0.29 ± 0.17. Take I13V: the abundance fitness is -0.186 ± 0.049.

In the case of K42H, the abundance fitness is -0.487 ± 0.28. In the case of K42D, the abundance fitness was -0.274 ± 0.16. In the case of K42I, the abundance fitness is -0.609 ± 0.17. Take K42V: the abundance fitness is -0.372 ± 0.074. For the variant M25D, the abundance fitness was -0.397 ± 0.091. Consider M25W, for which the abundance fitness was -0.672 ± 0.12. For M25E the value was -0.323 ± 0.093.

M25F: the abundance fitness was -0.614 ± 0.29.

Regarding M25S, the abundance fitness is -0.416 ± 0.086. For A28C the value was -0.351 ± 0.15; for A28E, -0.078 ± 0.069; for A28W, -0.242 ± 0.062. As for A28D, the abundance fitness was -0.152 ± 0.12. On to A28T, for which the abundance fitness was -0.234 ± 0.066. The value for A53N was -0.275 ± 0.24; that for A53Q was -0.898 ± 0.17; that for A53W was -1.19 ± 0.19. The value for A53E was -0.52 ± 0.084; that for A53V was -0.787 ± 0.12. A53S: the abundance fitness is -0.431 ± 0.055. For A53P the value was -1.19 ± 0.3. Consider Q12P, for which the abundance fitness is -0.812 ± 0.15. For Q12I the value was -0.101 ± 0.15; for Q12E, 0.05 ± 0.069. As for Q12V, the abundance fitness is -0.434 ± 0.092. For Q12W the value was -0.662 ± 0.1; for K1W, -0.336 ± 0.13; for K1C, -0.206 ± 0.095. For K1P the value was -0.549 ± 0.3; for K1A, -0.193 ± 0.098.

As for R55N, the abundance fitness was -0.22 ± 0.07. For R55A the value was -0.103 ± 0.053. As for R55D, the abundance fitness is -0.136 ± 0.07. On to R55W, for which the abundance fitness is -0.44 ± 0.047. The value for R55S was -0.309 ± 0.045. For R55F, the abundance fitness was -0.38 ± 0.059. The value for R55V was -0.248 ± 0.039; that for R55L was -0.326 ± 0.046. The value for R55I was -0.22 ± 0.06; that for K32G was -0.361 ± 0.038. As for K32S, the abundance fitness is -0.067 ± 0.04.

On to K32V, for which the abundance fitness was -0.116 ± 0.035. For the variant K32L, the abundance fitness was -0.08 ± 0.031. As for R33E, the abundance fitness worked out at 0.316 ± 0.067.

Turning to R33Q, the abundance fitness was 0.332 ± 0.077.

For R33V, the abundance fitness was determined as 0.339 ± 0.074. The value for R33T was 0.085 ± 0.097; that for R33A was 0.121 ± 0.078. For the variant R33Y, the abundance fitness is -0.218 ± 0.16.

Take R33W: the abundance fitness was -0.089 ± 0.066. For A62L the value was -0.175 ± 0.042; for A62D, 0.015 ± 0.046; for A62G, -0.017 ± 0.038.

Regarding A62E, the abundance fitness was -0.078 ± 0.068. Turning to A62S, the abundance fitness is -0.021 ± 0.037. Turning to I47K, the abundance fitness is -0.112 ± 0.074. For I47P the value was -0.796 ± 0.4. For I47G the value was -0.231 ± 0.039; for I47N, -0.322 ± 0.05; for I47V, -0.086 ± 0.037. On to N27W, for which the abundance fitness was -0.019 ± 0.057. In the case of N27G, the abundance fitness is -0.103 ± 0.033.

As to N27R, the abundance fitness was -0.112 ± 0.044. For K59R the value was -0.126 ± 0.035; for K59H, -0.108 ± 0.073; for K59E, -0.017 ± 0.046. Consider K59W, for which the abundance fitness was -0.369 ± 0.056. Consider K59F, for which the abundance fitness was -0.321 ± 0.054. The value for G35R was 0.19 ± 0.037. Consider G35Q, for which the abundance fitness stood at 0.302 ± 0.2. The value for G35N was 0.015 ± 0.056; that for G35C was 0.095 ± 0.045.

Regarding G35H, the abundance fitness stood at 0.178 ± 0.051. For E20Q the value was -0.142 ± 0.33; for E20P, -0.524 ± 0.12; for E20F, -0.601 ± 0.19.

With E20S, the abundance fitness is -0.497 ± 0.12.

Regarding E20W, the abundance fitness is -0.626 ± 0.1.

E20G: the abundance fitness is -0.343 ± 0.11.

F49A: the abundance fitness is -0.533 ± 0.084.

With F49K, the abundance fitness is -0.879 ± 0.17. For the variant F49R, the abundance fitness was -1.04 ± 0.11. For W10Q the value was -0.921 ± 0.33; for W10G, -0.954 ± 0.2; for W10P, -0.751 ± 0.13. For W10Y the value was -0.554 ± 0.2; for I30C, -0.277 ± 0.046. For I30V the value was 0.022 ± 0.037; for K46N, -1.08 ± 0.11. Consider K46M, for which the abundance fitness was -0.841 ± 0.074.

K36D: the abundance fitness was -0.362 ± 0.25.

On to K36L, for which the abundance fitness is -0.105 ± 0.057. For the variant K36S, the abundance fitness is -0.098 ± 0.11. For the variant K36F, the abundance fitness is -0.053 ± 0.13. The value for K36A was -0.019 ± 0.071; that for K36P was -0.722 ± 0.18. Consider P3E, for which the abundance fitness turned out to be 0.072 ± 0.074. With P3M, the abundance fitness is -0.163 ± 0.063.

With P3H, the abundance fitness is -0.055 ± 0.064. The value for P3L was -0.216 ± 0.053.

As for P3R, the abundance fitness is -0.149 ± 0.039.

As to Q21W, the abundance fitness was -0.884 ± 0.17. For Q21T the value was -0.085 ± 0.075. The value for Q21F was -0.426 ± 0.14; that for Q21S was -0.163 ± 0.064; that for Q21C was -0.581 ± 0.17. For the variant Q21N, the abundance fitness was -0.382 ± 0.12.

With R2S, the abundance fitness was determined as 0.003 ± 0.093.

R2H: the abundance fitness was -0.305 ± 0.19. With R2I, the abundance fitness was -0.012 ± 0.12. For R2N, the abundance fitness is -0.154 ± 0.16. With R2P, the abundance fitness was -0.519 ± 0.16. The value for K17V was -0.318 ± 0.1. In the case of K17D, the abundance fitness is -0.459 ± 0.12.

Source of the values: the Human Domainome abundance scans (Beltran et al. 2025).
